Measured values from PMC2749713 (Molecular cell, 2009).
Numbering of substitutions follows the chain as printed. Names may count otherwise. Blank lines part the entries; values can stand above or below the binder they belong to. No end group written: not given here.

Assays:
AαB56γCα PP2A holoenzyme = AαB56γCα PP2A holoenzyme (human, UniProt P30153 2-589; Q13362 1-524; P67775 1-309); test: SEC + other: dynamic light scattering
[1] = target: FLAG-tagged MBP-Sgo1(47-105) (human, UniProt Q5FBB7 47-105); test: pull-down
[2] = target: FLAG-tagged MBP-Sgo1(47-105) Y57A/N60A (dimerization assay) (human, UniProt Q5FBB7 47-105, Y57A | N60A); test: pull-down
[3] = target: FLAG-tagged MBP-Sgo1(47-105) N61I (dimerization assay) (human, UniProt Q5FBB7 47-105, N61I); test: pull-down
[4] = target: FLAG-Sgo1(51-105) peptide (human, UniProt Q5FBB7 51-105); test: pull-down
[5] = target: FLAG-tagged MBP-Sgo1(47-105) Y57A/K62A (dimerization assay) (human, UniProt Q5FBB7 47-105, Y57A | K62A); test: pull-down
[6] = target: FLAG-tagged MBP-Sgo1(47-105) N60A/K62A (dimerization assay) (human, UniProt Q5FBB7 47-105, N60A | K62A); test: pull-down
PP2A C subunit (Cα) = PP2A C subunit (Cα) (human, UniProt P67775 1-309); test: crystal structure
Chain of PP2A C subunit (Cα) (P67775 whole entry): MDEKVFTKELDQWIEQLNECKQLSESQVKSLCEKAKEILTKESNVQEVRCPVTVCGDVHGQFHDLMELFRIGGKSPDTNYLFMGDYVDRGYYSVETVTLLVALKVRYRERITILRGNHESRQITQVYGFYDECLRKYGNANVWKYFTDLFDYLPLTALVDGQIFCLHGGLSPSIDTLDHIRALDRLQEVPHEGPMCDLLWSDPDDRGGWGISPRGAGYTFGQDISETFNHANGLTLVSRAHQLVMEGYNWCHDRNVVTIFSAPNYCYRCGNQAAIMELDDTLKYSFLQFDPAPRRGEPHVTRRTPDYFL

Chain of AαB56γCα PP2A holoenzyme (P30153 2-589, chain 1 of 3): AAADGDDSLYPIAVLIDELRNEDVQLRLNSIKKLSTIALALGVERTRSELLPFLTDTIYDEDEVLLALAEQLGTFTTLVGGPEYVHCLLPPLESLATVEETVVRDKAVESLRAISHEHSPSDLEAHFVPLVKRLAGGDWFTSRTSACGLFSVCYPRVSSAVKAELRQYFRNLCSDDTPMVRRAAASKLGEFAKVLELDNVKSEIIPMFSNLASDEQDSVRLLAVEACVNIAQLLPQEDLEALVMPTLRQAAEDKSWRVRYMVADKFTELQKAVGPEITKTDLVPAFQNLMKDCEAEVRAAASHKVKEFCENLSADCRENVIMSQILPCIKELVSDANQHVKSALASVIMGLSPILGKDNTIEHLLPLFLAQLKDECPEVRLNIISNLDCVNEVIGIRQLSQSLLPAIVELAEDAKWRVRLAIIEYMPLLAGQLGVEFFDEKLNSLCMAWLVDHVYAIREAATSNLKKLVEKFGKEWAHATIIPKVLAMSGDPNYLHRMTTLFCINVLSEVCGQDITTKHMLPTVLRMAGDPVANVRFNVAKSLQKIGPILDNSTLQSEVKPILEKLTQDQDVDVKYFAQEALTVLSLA
Chain of AαB56γCα PP2A holoenzyme (Q13362 whole entry, chain 2 of 3): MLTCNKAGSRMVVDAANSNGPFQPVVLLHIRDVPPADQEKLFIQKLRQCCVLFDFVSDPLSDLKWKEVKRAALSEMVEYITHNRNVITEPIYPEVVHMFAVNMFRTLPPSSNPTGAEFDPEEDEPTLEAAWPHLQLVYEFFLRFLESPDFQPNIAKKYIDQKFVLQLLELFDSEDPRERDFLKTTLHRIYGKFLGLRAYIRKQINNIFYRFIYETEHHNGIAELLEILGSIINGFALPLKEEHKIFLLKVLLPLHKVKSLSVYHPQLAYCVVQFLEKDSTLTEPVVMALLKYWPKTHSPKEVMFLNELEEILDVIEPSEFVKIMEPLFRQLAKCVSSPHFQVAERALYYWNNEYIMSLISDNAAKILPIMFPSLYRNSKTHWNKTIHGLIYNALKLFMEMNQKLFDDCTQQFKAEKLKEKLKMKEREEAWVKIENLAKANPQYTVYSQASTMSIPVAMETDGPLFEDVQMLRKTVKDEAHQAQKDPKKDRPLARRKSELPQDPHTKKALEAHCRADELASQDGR
Chain of AαB56γCα PP2A holoenzyme (P67775 whole entry, chain 3 of 3): as the sequence (P67775 whole entry) above

stoichiometry N (AαB56γCα PP2A holoenzyme): 2 Sgo1 per PP2A holoenzyme | binding result [1]: binds
B1: MBP-Sgo1(51-105) (domain or fragment, human, UniProt Q5FBB7 51-105, looked up)
chain: STLLKNYQDNNKMLVLALENEKSKVKEAQDIILQLRKECYYLTCQLYALKGKLTS

binding result [2]: binds
B2: MBP-Sgo1(51-105) Y57A/N60A, untagged (dimerization assay) (domain or fragment, human, UniProt Q5FBB7 51-105, looked up)
chain: B1 chain with Y7A, N10A
modifications: cysteine pairing not given here; also: MBP fusion

binding result [3]: binds
B3: MBP-Sgo1(51-105) N61I, untagged (dimerization assay) (domain or fragment, human, UniProt Q5FBB7 51-105, looked up)
chain: B1 chain with N11I
modifications: cysteine pairing not given here; also: MBP fusion

stoichiometry N (AαB56γCα PP2A holoenzyme): 2 Sgo1 per PP2A holoenzyme | binding result [4]: binds
B4: Sgo1(51-105) (peptide, UniProt Q5FBB7 51-105, looked up)
chain: B1 chain

binding result [5]: binds
B5: MBP-Sgo1(51-105) Y57A/K62A, untagged (dimerization assay) (domain or fragment, human, UniProt Q5FBB7 51-105, looked up)
chain: B1 chain with Y7A, K12A
modifications: cysteine pairing not given here; also: MBP fusion

binding result [6]: binds
B6: MBP-Sgo1(51-105) N60A/K62A, untagged (dimerization assay) (domain or fragment, human, UniProt Q5FBB7 51-105, looked up)
chain: B1 chain with N10A, K12A
modifications: cysteine pairing not given here; also: MBP fusion

binding result (PP2A C subunit (Cα)): binds
B7: Sgo1(51-96) peptide (peptide, UniProt Q5FBB7 51-96, looked up)
chain: STLLKNYQDNNKMLVLALENEKSKVKEAQDIILQLRKECYYLTCQL
